US20240317834A1, “COMPOSITIONS AND METHODS FOR NEUROLOGICAL DISEASES” (CODA BIOTHERAPEUTICS, INC., priority 2020, published 2024)

Tested on: Lenti-X 293T cells
Assay: YFP fluorescence quenching anion reporter plate reader assay of engineered receptors stimulated with acetylcholine or a non-native ligand
Type: cell-based
Source text: To screen these mutant LGICs for those having novel response profiles to ligands, an anion reporter assay was developed to assess the function of the LGICs in a high throughput format. In this assay, cells expressing a YFP reporter whose fluorescence is quenched in the presence of anion are transfected with DNA encoding the channel of interest. Upon exposure to ligand, channels that are activated will flux anion, resulting in a dose-dependent quench of the YFP that can be detected on a plate reader. The greater the quench signal (i.e., the more positive the value), the higher the ligand activity on the receptor is.
Lenti-X 293T cells (LX293T, Clontech) were maintained in DMEM containing 10% FBS and 1% penicillin/streptomycin (Invitrogen). […] Two days before assay, cells were split at a density of 20,000 cells/well in a 96-well tissue culture plate coated with poly-d lysine (Thermo Scientific). The next day, the cells were transiently transfected with 0.1 μg of DNA per well using standard Fugene protocol (Promega). On the day of assay, cells were washed 2 times in 1× extracellular solution (1×ECS: 140 mM NaCl, 5 mM KCl, 1 mM MgCl2, 2 mM CaCl2), 10 mM HEPES, 10 mM glucose, pH 7.2, mOsms 300). After the last wash, 100 μL of 1×ECS was added to the wells and the plate was incubated at 37° C. for 30 min. While incubating the plate, the drugs were diluted to a 2× concentration in 1×ECS-NaI (same components as 1×ECS except the 140 mM NaCl was replaced by 140 mM NaI). The plates were then read on a Flexstation3 (Molecular Devices). Each well, 8 wells at a time, of the plate is read for 2 min using a Flexstation3 (Molecular Devices) as follows: 1) a baseline YFP fluorescence is read for 17 sec, 2) 100 μL of ligand is added, and 3) the changes in YFP fluorescence are then measured every 1.3 sec for 1 minute and 43 seconds. The percent quench is calculated from the average fluorescence of the last 10 seconds of the read divided by the baseline average of the first 15 seconds prior to the ligand addition.
FIGS. 1A-1J provide heat maps of the percent quench of YFP fluorescence following stimulation by various doses of either acetylcholine or the non-native ligand as indicated in the Figures. CODA71 (SEQ ID NO: 33) was used as a control, and CODA75 (SEQ ID NO: 29, a non-responding chimeric engineered receptor) was used as the negative control. Quenching of the fluorescence signal, as indicated by blue shaded cells, indicate the level of engineered receptor activation by the non-native ligand at that concentration.

B1: CODA238: engineered chimeric LGIC receptor, R101W in SEQ ID NO: 33 (protein)
chain: MRCSPGGVWLALAASLLHVSLQGEFQRKLYKELVKNYNPLERPVANDSQPLTVYFSLSLLQIMDVDEKNQVLTTNIWLQMSWTDHYLQWNVSEYPGVKTVWFPDGQIWKPDILLYNSADERFDATFHTNVLVNSSGHCQYLPPGIFKSSCPMDLKNFPMDVQTCKLKFGSWSYGGWSLDLQMQEADISGYIPNGEWDLVGIPGKRSERFYECCKEPYPDVTFTVTMRRRMGYYLIQMYIPSLLIVILSWISFWINMDAAPARVGLGITTVLTMTTQSSGSRASLPKVSYVKAIDIWMAVCLLFVFSALLEYAAVNFVSRQHKELLRFRRKRRHHKSPMLNLFQEDEAGEGRFNFSAYGMGPACLQAKDGISVKGANNSNTTNPPPAPSKSPEEMRKLFIQRAKKIDKISRIGFPMAFLIFNMFYWIIYKIVRREDVHNQ
modifications: synthetic sequence of chimeric LGIC
In the case of B1, the “YFP fluorescence quenching using CNL001” value (1 nM CNL001, first column) is reported as 32.42%, the “YFP fluorescence quenching using CNL001” value (1 nM CNL001, second column) is reported as 54.768% and the “YFP fluorescence quenching using TC-5619/Bradanicline” value (3 nM brd) is reported as 74.7%. For the same molecule, the “YFP fluorescence quenching using Varenicline” value (3 nM var, first column) was 17.896, the “YFP fluorescence quenching using Varenicline” value (3 nM var, second column) was 12.564 and the “YFP fluorescence quenching using CNL001” value (10 nM CNL001, first column) was 75.149%. For the same molecule, the “YFP fluorescence quenching using CNL001” value (10 nM CNL001, second column) was 75.339%, the “YFP fluorescence quenching using TC-5619/Bradanicline” value (30 nM brd) was 76.78% and the “YFP fluorescence quenching using Facinicline” value (30 nM fac) was −19.61. The “YFP fluorescence quenching using Varenicline” value (30 nM var, first column) was 16.263, the “YFP fluorescence quenching using Varenicline” value (30 nM var, second column) was 22.117 and the “YFP fluorescence quenching using CNL001” value (50 nM CNL001, first column) was 75.881%. The “YFP fluorescence quenching using CNL001” value (50 nM CNL001, second column) was 77.844%, the “YFP fluorescence quenching using ABT-126” value (50 nM abt) was −14.97% and the “YFP fluorescence quenching using CNL001” value (100 nM CNL001, first column) was 78%. For the same molecule, the “YFP fluorescence quenching using CNL001” value (100 nM CNL001, second column) was 78.575%, the “YFP fluorescence quenching using CNL002” value (100 nM CNL002) was 2.95% and the “YFP fluorescence quenching using ABT-126” value (100 nM abt) was −14.66%. The “YFP fluorescence quenching using AZD-0328” value (100 nM azd0328) was 22.94%, the “YFP fluorescence quenching using ABT-126” value (300 nM abt) was −16.35% and the “YFP fluorescence quenching using AZD-0328” value (300 nM azd0328) was 75.38%. The “YFP fluorescence quenching using TC-5619/Bradanicline” value (300 nM brd) was 77.01%, the “YFP fluorescence quenching using Facinicline” value (300 nM fac) was 76.54 and the “YFP fluorescence quenching using Varenicline” value (300 nM var, first column) was 77.492. The “YFP fluorescence quenching using Varenicline” value (300 nM var, second column) was 79.056, the “YFP fluorescence quenching using Varenicline” value (500 nM var, first column) was 80.186 and the “YFP fluorescence quenching using Varenicline” value (500 nM var, second column) was 80.065. For the same molecule, the “YFP fluorescence quenching using CNL001” value (1 uM CNL001, first column) was 81.126%, the “YFP fluorescence quenching using CNL001” value (1 uM CNL001, second column) was 79.482% and the “YFP fluorescence quenching using CNL002” value (1 uM CNL002) was 67.93%. For the same molecule, the “YFP fluorescence quenching using ABT-126” value (1 uM abt) was 50.02%, the “YFP fluorescence quenching using TC-6987” value (1 uM tc6987) was 72.47 and the “YFP fluorescence quenching using Varenicline” value (1 uM var, first column) was 81.263. For the same molecule, the “YFP fluorescence quenching using Varenicline” value (1 uM var, second column) was 80.702, the “YFP fluorescence quenching using TC-6987” value (10 uM tc6987) was 72.04 and the “YFP fluorescence quenching using CNL002” value (30 uM CNL002) was 73.02%. The “YFP fluorescence quenching using AZD-0328” value (30 uM azd0328) was 81.8%, the “YFP fluorescence quenching using Facinicline” value (30 uM fac) was 87.94 and the “YFP fluorescence quenching using TC-6987” value (500 uM tc6987) was 76.56. The “percent quench of YFP fluorescence, 10 uM ach” value (acetylcholine 10 uM) was −16.58%, the “percent quench of YFP fluorescence, 100 uM ach” value (acetylcholine 100 uM) was 75.18% and the “percent quench of YFP fluorescence, 1 mM ach” value (acetylcholine 1 mM) was 78.99%. The “percent quench of YFP fluorescence, 3 mM ach” value (acetylcholine 3 mM) was 75.74%.
